Source: patent US9186389B2, “Nanoparticles containing pH-responsive peptide” (Taiho Pharmaceutical Co., Ltd., priority 2011, dated 2015)
* marks the point of attachment. Stearoyl = CCCCCCCCCCCCCCCCCC(=O)*

Assay: CD spectra under different pH conditions with predicted secondary structure
Format: physicochemical
Settings: peptide concentration 20 μM, PBS (−), pH 7.4, 6.5, 6.0, 5.5
Protocol: The peptide obtained in Production Example 1 alone and liposome 1 obtained as in Example 1 (each having a peptide concentration of 20 μM) were suspended in PBS (−) having different pH, and CD (circular dichroism) spectra were recorded on a J-720WI spectropolarimeter (produced by JASCO Corporation). Then, analysis software (see JWSSE-480; Molecular Membrane Biology, July, August 2007; 24 (4): 282-293) was used to predict the composition of the secondary structure in the spectra.
In FIG. 9 below, the “α-helix” represents an a helix structure; the “coil” represents a random coil structure (not forming a clear secondary structure); and “turn” represents a bending structure.

## C17H35—C(O)-GGGGHGAHEHAGHEHAAGEHHAHE-NH2 (Stearoyl-GGGGHGAHEHAGHEHAAGEHHAHE-NH2; SMILES CCCCCCCCCCCCCCCCCC(=O)NCC(=O)NCC(=O)NCC(=O)NCC(=O)N[C@@H](Cc1c[nH]cn1)C(=O)NCC(=O)N[C@@H](C)C(=O)N[C@@H](Cc1c[nH]cn1)C(=O)N[C@@H](CCC(=O)O)C(=O)N[C@@H](Cc1c[nH]cn1)C(=O)N[C@@H](C)C(=O)NCC(=O)N[C@@H](Cc1c[nH]cn1)C(=O)N[C@@H](CCC(=O)O)C(=O)N[C@@H](Cc1c[nH]cn1)C(=O)N[C@@H](C)C(=O)N[C@@H](C)C(=O)NCC(=O)N[C@@H](CCC(=O)O)C(=O)N[C@@H](Cc1c[nH]cn1)C(=O)N[C@@H](Cc1c[nH]cn1)C(=O)N[C@@H](C)C(=O)N[C@@H](Cc1c[nH]cn1)C(=O)N[C@@H](CCC(=O)O)C(N)=O) [Compound 1]
  structural change with pH (CD spectrum): a structural change does not occur unless the pH is lowered to 6.0
